System: C[C@H](CCC[C@@H](C)[C@H]1CC[C@H]2[C@@H]3CCC4=CC(=O)CC[C@]4(C)[C@H]3CC[C@]12C)C(=O)SCCNC(=O)CCNC(=O)[C@H](O)C(C)(C)COP(=O)(O)OP(=O)(O)OC[C@H]1O[C@@H](n2cnc3c(N)ncnc32)[C@H](O)[C@@H]1OP(=O)(O)O
Test: purified protein
Details: pH 8.5; 25.0 °C

For “MCR (Rv1143) (Mycobacterium tuberculosis H37Rv)”, the Km was 6.5 ± 1.4 µM.

Source: publication PMC4600597
